US20240392013A1 (STELEXIS THERAPEUTICS, published 2024)

T1: IL1RAP on HEK-Blue IL1β / HEK-Blue IL33 reporter cells (UniProt Q9NPH3 21-570, limits assumed)
T1 sequence (looked up): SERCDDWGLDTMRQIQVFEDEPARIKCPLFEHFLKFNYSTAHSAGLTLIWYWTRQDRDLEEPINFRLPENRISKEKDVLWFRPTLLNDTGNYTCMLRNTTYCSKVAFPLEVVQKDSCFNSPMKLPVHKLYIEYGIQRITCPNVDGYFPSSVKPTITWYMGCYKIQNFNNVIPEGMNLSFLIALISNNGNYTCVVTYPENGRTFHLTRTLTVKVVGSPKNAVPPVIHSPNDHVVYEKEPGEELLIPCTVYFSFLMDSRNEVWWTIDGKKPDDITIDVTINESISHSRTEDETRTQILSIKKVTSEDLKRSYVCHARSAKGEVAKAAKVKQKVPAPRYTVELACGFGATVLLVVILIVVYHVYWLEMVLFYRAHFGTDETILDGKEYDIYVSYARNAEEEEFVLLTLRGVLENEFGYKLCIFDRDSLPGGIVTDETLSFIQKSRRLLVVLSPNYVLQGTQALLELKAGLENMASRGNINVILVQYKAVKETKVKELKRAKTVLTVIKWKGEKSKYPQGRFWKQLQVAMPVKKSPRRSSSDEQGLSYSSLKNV

T2: recombinant mouse IL1RAP protein (Sino Biological, Cat #52657-M08H) (mouse, UniProt Q61730 21-359)
T2 construct: Bought protein
T2 sequence (looked up): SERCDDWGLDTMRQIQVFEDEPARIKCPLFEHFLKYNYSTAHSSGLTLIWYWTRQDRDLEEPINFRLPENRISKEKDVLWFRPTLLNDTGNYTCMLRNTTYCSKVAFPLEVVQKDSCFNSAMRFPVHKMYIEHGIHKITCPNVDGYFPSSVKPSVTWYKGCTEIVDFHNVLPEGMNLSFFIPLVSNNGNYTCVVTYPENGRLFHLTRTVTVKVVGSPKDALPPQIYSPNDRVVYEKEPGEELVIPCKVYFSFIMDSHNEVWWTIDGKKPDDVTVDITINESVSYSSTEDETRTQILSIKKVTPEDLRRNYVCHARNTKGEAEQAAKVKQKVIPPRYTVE

T3: cyIL1RAP-His (Lake Pharma) (cynomolgus monkey, UniProt A0A2K5X5J5 21-367)
T3 construct: Bought protein (Lake Pharma, lot 16205819371); also called cynomolgus IL1RAP; monkey IL1RAP; not shown: His tag
T3 sequence: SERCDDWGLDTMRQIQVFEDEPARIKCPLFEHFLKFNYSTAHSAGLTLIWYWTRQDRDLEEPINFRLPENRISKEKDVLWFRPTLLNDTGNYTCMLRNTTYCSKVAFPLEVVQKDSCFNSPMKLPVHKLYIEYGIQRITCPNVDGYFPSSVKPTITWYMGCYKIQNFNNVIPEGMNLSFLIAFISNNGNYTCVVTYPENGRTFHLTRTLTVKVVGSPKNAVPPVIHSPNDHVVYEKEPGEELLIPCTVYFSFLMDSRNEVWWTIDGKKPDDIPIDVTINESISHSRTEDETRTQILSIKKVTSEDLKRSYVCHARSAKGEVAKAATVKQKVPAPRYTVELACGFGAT

T4: recombinant human IL1RAP protein, extracellular domain His-tagged (Sino Biological, Cat #10121-H08H) (human, UniProt Q9NPH3 21-367)
T4 construct: extracellular domain; Bought protein; The Octet analyte is printed as huIL1RAP-His (Sino Biological, lot MB08MA1301) without a catalogue number; also called huIL1RAP-His; hIL1RAP; not shown: His tag
T4 sequence (looked up): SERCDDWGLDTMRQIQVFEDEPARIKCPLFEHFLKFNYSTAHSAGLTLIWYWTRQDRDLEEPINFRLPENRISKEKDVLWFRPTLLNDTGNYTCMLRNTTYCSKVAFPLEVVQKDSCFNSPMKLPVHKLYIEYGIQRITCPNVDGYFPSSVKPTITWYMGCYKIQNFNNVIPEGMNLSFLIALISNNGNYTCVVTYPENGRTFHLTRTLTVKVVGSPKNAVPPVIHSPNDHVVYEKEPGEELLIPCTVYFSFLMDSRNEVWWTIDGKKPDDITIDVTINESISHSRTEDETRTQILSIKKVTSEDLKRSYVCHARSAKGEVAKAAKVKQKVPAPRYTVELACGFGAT


How the values were obtained:
[1] = target: T1, IL1RAP on HEK-Blue IL1β / HEK-Blue IL33 …; test: cell-based or functional assay
[2] = target: T1, IL1RAP on HEK-Blue IL1β / HEK-Blue IL33 …; test: cell-based or functional assay; remark: listed apart in the source
[3] = target: T2, recombinant mouse IL1RAP protein (Sino …); test: cell-free ELISA, mouse IL1RAP coated; data not shown
Description: Recombinant human or mouse IL1RAP proteins (Sino Biological, Beijing, China; Cat #10121-H08H and Sino Biological, Cat #52657-M08H respectively) were diluted in PBS, pH 7.4 at concentration of 1 μg/ml, coated on high-binding 384-well clear plates and incubated overnight at 4° C. Following, plates were washed 3× with 0.05% Tween-20 in PBS, pH 7.5 and then blocked with 1% BSA in PBS for 1 hour at room temperature. After 3× washes, wells were incubated with each antibody at the highest concentration of 100 nM followed by seven serial half log dilutions (in 1% BSA and 0.05% Tween-20 in PBS) for 1 hour at room temperature. Plates were then washed 3× and incubated with […] detection antibody (Medna, TX, USA; Cat #D8212, 0.5 μg/ml diluted in 0.02% Tween-20 in PBS). After 5× washes, Supersignal ELISA Pico substrate (Thermofisher, MA, USA; Cat #37069) was applied to wells and chemiluminescent signal was read on Sprectramax L for 200 ms/well. Similarly, detection with specific κ and λ antibodies was conducted to define light chain isotyping.

[4] = target: T3, cyIL1RAP-His (Lake Pharma); test: Octet BLI; mAb captured on anti-mouse IgG Fc sensor; cyIL1RAP-His analyte
Description: (§1) Antibodies were diluted in kinetics buffer (0.1% BSA, 0.02% Tween-20 and 0.05% NaN₃ in PBS) and loaded onto 16 channel anti-mouse IgG Fc capture sensors (AMC, Cat #2001073; Sartorius, Göttingen, Germany). Human, huIL1RAP-His (Sino Biological, lot: MB08MA1301), and monkey, cyIL1RAP-His (Lake Pharma, NY, USA; lot:16205819371) proteins were titrated starting from the highest concentration of 100 nM and followed by 50 nM and 25 nM. Purified antibodies were loaded at 5 μg/ml in kinetics buffer. The experimental parameters selected to determine the kinetic constants were Baseline for 60 s, Loading of antibody to sensor for 180 s, Association of analyte to antibody for 120 s, Dissociation for 1200 s and Regeneration in 10 mM Glycine pH 1.7 for 4×30 s.
(§2) Regeneration cycle tracking was selected for 12 cycles. Binding to human and cynomolgus IL1RAP was measured and KD (M) kinetics were calculated. Also, the disassociation rate (Kdis) (1/s) and association rate (Kon) (1/Ms) kinetics were calculated (data not shown).

[5] = target: T4, recombinant human IL1RAP protein, …; test: Octet BLI; mAb captured on anti-mouse IgG Fc sensor; huIL1RAP-His analyte
Description: as §1, §2

Row | Binder | IC50, HEK-BlueIL1β NFκB Reporter Assay [1] | Max % Inhibition at 200 nM, HEK-BlueIL1β NFκB Reporter Assay [1] | IC50, HEK-BlueIL33 NFκB Reporter Assay [2] | Max % Inhibition at 200 nM, HEK-BlueIL33 NFκB Reporter Assay [2] | binding result [3] | Kd [4] | Response [4] | koff [4] | kon [4] | Kd [5] | Response [5] | koff [5] | kon [5]
1 | STLX2025 (antibody, V domains shown, Purified from hybridoma of immunized Alivamab mice; intact IgG; captured on anti-mouse IgG Fc sensors in Octet; kappa light chain; also called 74804_25H09A) VH: QVQLVQSGAEVKKPGSSVKVSCKASGDTFSNYAITWVRQAPGQGLEWIVGFSPIFGTANYAQKFQGRVTITADKSTSTAYMELSSLISEDTAVYYCAWGSGNFNWFDPWGQGTLVTVSS VL: AIRMTQSPSSFSASTGDRVTITCRASQGISSYLAWYQQKPGKAPKLLIYAASTLQSGVPSRFSGSGSGTDFTLTISSLQSEDFATYYCQQYYSYPLTFGGGTKVEIK | 1.77e-09 M (implied; unit not printed) | 100% | 6.55e-09 M (implied; unit not printed) | 73% | no binding (tested: 100 nM) | 2.09 nM | 0.263 | 0.000297 s⁻¹ | 142000 M⁻¹ s⁻¹ | 2.18 nM | 0.26 | 0.000337 s⁻¹ | 154000 M⁻¹ s⁻¹
2 | STLX2001E (antibody, V domains shown, Purified from hybridoma of immunized Alivamab mice; intact IgG by SEC and SDS-PAGE; captured on anti-mouse IgG Fc sensors in Octet; kappa light chain; also called 74804_01E23A) VH: QVQLVQSGAEVKKPGASVKVSCKASGYTFTGYYMHWVRQAPGQGLEWMGWLNPNSGGTDYVQKFQGRVTMTRDTSISTAYMELSRLRSDDTAVYYCARTLYYYGMDVWGQGTTVTVSS VL: not shown | 7.37e-10 M (implied; unit not printed) | 98% | 2.49e-09 M (implied; unit not printed) | 80% | no binding (tested: 100 nM) | 4.54 nM | 0.265 | 0.000863 s⁻¹ | 190000 M⁻¹ s⁻¹ | 2.34 nM | 0.308 | 0.000391 s⁻¹ | 167000 M⁻¹ s⁻¹
3 | STLX2005 (antibody, V domains shown, Purified from hybridoma of immunized Alivamab mice; intact IgG; captured on anti-mouse IgG Fc sensors in Octet; kappa light chain; also called 74804_05B24A) VH: EVQLVDSGGGLVKPGGSLRLSCAATGFTFSNVWMSWVRQGSGKGLEWVGRIKSKTDGGTIDYAAPVKGRFTISRDDPKNTLYLQMNSLKTEDTAVYYCTTGELLGFDYWGQGTLVTVSS VL: DIVMTQSPLSLPVTPGEPASISCRSGQSLLHNNGFNCLAWYLQKPGQSPQLLIYLGSNRASGVPDRFSGSGSGTDFTLKISRVEAEDVGVFYCMQTLQTPITFGQGTRLEIK | 4.46e-10 M (implied; unit not printed) | 99% | 2.72e-09 M (implied; unit not printed) | 85% | no binding (tested: 100 nM) | 2.1 nM | 0.3 | 0.000563 s⁻¹ | 268000 M⁻¹ s⁻¹ | 1.67 nM | 0.268 | 0.000491 s⁻¹ | 294000 M⁻¹ s⁻¹
4 | STLX2029 (antibody, V domains shown, Purified from hybridoma of immunized Alivamab mice; intact IgG; captured on anti-mouse IgG Fc sensors in Octet; kappa light chain; also called 74804_29D13A) VH: QVQLLQSGAEVKKPGSSVKVSCKASGGTFSIYAIDWVRQAPGQGLEWMGGIIPIFGTANSAQKFQGRVTITADKSTSTAYMELSSLRSEDTAVYYCARNGATSDAFDMWGQGTMVTVSS VL: EIVLTQSPGTLSLSPGERATLSCRASLSVSSNYLAWFQQRPGQAPRLLIYGVSRRATGIPDRFSGSGSGTDFTLTISRLEPEDFAVYYCQQYGSSPLTFGGGTKVEIK | 1.85e-09 M (implied; unit not printed) | 99% | 8.75e-09 M (implied; unit not printed) | 86% | no binding (tested: 100 nM) | 1.97 nM | 0.327 | 0.00065 s⁻¹ | 330000 M⁻¹ s⁻¹ | 1.07 nM | 0.291 | 0.000361 s⁻¹ | 336000 M⁻¹ s⁻¹

The next binders have a lower Kd [4] than those just listed; values first:

Row | IC50, HEK-BlueIL1β NFκB Reporter Assay [1] | Max % Inhibition at 200 nM, HEK-BlueIL1β NFκB Reporter Assay [1] | IC50, HEK-BlueIL33 NFκB Reporter Assay [2] | Max % Inhibition at 200 nM, HEK-BlueIL33 NFκB Reporter Assay [2] | binding result [3] | Kd [4] | Response [4] | koff [4] | kon [4] | Kd [5] | Response [5] | koff [5] | kon [5] | Binder
5 | 2.5e-09 M (implied; unit not printed) | 99% | 1.3e-08 M (implied; unit not printed) | 77% | no binding (tested: 100 nM) | 1.41 nM | 0.265 | 0.000459 s⁻¹ | 326000 M⁻¹ s⁻¹ | 0.875 nM | 0.237 | 0.000301 s⁻¹ | 344000 M⁻¹ s⁻¹ | STLX2051 (antibody, V domains shown, Purified from hybridoma of immunized Alivamab mice; intact IgG; captured on anti-mouse IgG Fc sensors in Octet; kappa light chain; also called 74804_51C10A) VH: QVQLLQSGAEVKKPGSSVKVSCKASGGTFNIYAIDWVRQAPGQGLEWMGGIIPIFGTANSAQKFQGRVTITADKSTNTAYMELSSLRSEDTAVYYCARNGATSDAFDIWGQGTMVTVSS VL: EIVLTQSPGTLSLSPGERATLSCRASQSVSSNYLAWFQQRPGQAPRLLIYGVSRRATGIPDRFSGSGSGTDFTLTISRLEPEDFAVYYCQQYGSSPLTFGGGTKVEIK
6 | 3.19e-09 M (implied; unit not printed) | 100% | 6.62e-09 M (implied; unit not printed) | 79% | no binding (tested: 100 nM) | 0.751 nM | 0.273 | 0.000283 s⁻¹ | 377000 M⁻¹ s⁻¹ | 0.596 nM | 0.247 | 0.000234 s⁻¹ | 392000 M⁻¹ s⁻¹ | STLX2007 (antibody, V domains shown, Purified from hybridoma of immunized Alivamab mice; intact IgG; captured on anti-mouse IgG Fc sensors in Octet; kappa light chain; also called 74804_07K10A) VH: QVQLLQSGAEVKKPGSSVKVSCRASGGTFSIYAIDWVRQAPGQGLEWMGGIIPISGTENSAQNFQDRITITADKSTNTAYMELSSLRSEDTAVYYCARNGATSDAFDIWGQGTMVTVSS VL: EIVLTQSPGTLSLSPGERATLSCRASLSVSSNYLAWFQQRPGQAPRLLIYGVSRRATGIPDRFSGSGSGTDFTLTISRLEPEDFAVYYCQQYGSSPLTFGGGTKVEIK
